Test results reported in US7514397.

biological target: viral gp41 of HIV-1IIIB (HIV-1IIIB); test: cell-based or functional assay

Question: “M41, maltose binding protein fusion with the extracellular domain of HIV-1 gp41 (540-686) (from UniProt P03377 540-686)” was tested. Which Cell fusion (IC90) did it give?
Answer: > 50 µM

Question: What about the HIV infectivity (IC90) of the same substance?
Answer: > 16 µM

Question: For “M41-P, M41 fusion protein with an Ile to Pro mutation at position 578 (from UniProt P0AEX9 27-392; P03377 540-686)”, which Cell fusion (IC90) is on record?
Answer: 0.083 µM

Question: What about the HIV infectivity (IC90) of the same substance?
Answer: 0.066 µM

Question: “M41-PΔ178, M41-P fusion protein from which the DP-178 region has been deleted (gp41 540-642, Ile578Pro) (from UniProt P03377 540-642)” was tested. Which Cell fusion (IC90) did it give?
Answer: > 50 µM

Question: And the HIV infectivity (IC90)?
Answer: > 8 µM
